Data as given in publication PMC10185811.

Assays:
GST-NUB1L, Q9Y5A7-1 = experiment: Octet (BLI); conditions: GST-NUB1L on the sensor; His6-RPN1 variant in solution; parent: est. 0.58; read off a plot
GST-RAD23 = GST-RAD23 (UniProt P54727); experiment: Octet (BLI); conditions: GST-RAD23 on the sensor; GST control curve in the same panel reaches est. 0.21 nm (above the T1 curve); read off a plot
His6-RPN1 WT (human) = His6-RPN1 WT (human) (UniProt Q13200); experiment: BLI; Octet; His6-RPN1 loaded on the nickel sensor; NUB1L, GST-FAT10, NUB1L with GST-FAT10 or NUB1L with GST in solution; Octet buffer (PBS, 0.1% Triton X-100, 1x ROTIBlock); 1:1 binding model

Sequence of His6-RPN1 WT (Q13200 whole entry, change not shown): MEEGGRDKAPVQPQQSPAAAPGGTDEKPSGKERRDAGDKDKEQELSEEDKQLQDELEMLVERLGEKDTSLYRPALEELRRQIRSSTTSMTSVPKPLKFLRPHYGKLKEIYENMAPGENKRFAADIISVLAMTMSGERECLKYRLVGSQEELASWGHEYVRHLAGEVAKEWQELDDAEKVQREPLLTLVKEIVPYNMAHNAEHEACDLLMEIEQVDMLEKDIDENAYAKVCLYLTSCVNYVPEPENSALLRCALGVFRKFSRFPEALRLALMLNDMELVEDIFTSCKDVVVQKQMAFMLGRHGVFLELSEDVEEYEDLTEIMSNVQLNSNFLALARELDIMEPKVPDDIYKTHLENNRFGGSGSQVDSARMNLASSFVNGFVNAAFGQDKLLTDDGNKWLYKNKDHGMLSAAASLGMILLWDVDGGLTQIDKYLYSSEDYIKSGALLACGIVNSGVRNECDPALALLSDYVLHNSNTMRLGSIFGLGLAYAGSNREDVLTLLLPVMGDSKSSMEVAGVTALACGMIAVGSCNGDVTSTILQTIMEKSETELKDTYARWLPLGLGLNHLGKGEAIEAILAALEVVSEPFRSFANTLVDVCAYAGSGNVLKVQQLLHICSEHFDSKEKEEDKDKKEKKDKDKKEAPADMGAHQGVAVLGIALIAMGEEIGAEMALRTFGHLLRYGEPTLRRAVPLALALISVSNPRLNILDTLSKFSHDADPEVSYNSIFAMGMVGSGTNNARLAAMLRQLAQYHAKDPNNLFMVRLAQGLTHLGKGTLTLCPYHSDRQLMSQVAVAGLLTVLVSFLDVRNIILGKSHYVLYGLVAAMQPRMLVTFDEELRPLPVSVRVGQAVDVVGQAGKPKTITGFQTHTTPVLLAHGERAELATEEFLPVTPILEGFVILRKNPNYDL
Sequence of GST-RAD23 (P54727 whole entry): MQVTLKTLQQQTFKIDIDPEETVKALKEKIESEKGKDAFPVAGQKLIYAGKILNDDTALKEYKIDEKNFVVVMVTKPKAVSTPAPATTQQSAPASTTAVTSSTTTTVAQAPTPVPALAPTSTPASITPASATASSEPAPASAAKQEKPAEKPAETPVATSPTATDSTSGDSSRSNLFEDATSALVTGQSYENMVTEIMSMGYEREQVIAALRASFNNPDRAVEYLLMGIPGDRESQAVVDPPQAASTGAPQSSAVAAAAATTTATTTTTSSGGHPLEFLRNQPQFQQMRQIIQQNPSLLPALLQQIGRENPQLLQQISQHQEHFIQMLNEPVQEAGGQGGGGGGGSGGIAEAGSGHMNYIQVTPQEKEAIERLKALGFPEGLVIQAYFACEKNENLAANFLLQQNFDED
Sequence of GST-NUB1L, Q9Y5A7-1 (Q9Y5A7 whole entry): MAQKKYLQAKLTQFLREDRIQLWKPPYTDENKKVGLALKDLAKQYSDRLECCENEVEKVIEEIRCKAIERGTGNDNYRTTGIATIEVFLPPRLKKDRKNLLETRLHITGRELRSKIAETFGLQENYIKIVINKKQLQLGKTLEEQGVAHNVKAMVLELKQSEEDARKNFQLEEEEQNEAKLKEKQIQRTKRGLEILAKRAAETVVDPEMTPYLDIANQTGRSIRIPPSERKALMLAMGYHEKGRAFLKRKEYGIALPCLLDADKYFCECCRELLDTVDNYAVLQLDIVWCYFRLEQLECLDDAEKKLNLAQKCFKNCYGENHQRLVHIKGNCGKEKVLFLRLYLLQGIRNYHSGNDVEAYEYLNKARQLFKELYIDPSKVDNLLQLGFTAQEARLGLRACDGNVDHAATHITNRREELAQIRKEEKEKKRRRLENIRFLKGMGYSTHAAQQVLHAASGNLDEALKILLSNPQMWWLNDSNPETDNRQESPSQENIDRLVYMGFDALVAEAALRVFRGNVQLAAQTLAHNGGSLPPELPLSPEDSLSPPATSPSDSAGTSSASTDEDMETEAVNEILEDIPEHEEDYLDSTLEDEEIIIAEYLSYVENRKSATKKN
Sequence of NUB1L-bound GST-FAT10 (NUB1L co-incubated with GST-FAT10) (Q9Y5A7 whole entry): as above
Sequence of NUB1L-bound GST-FAT10 (NUB1L co-incubated with GST-FAT10) (O15205 whole entry): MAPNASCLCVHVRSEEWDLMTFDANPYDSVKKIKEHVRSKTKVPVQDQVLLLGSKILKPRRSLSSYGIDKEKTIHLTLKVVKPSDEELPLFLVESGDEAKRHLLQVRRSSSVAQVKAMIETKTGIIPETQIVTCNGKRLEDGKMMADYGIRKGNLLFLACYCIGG

| Substance | response (GST-NUB1L, Q9Y5A7-1) | response (GST-RAD23) | fold increase of the affinity for RPN1 against NUB1L alone (His6-RPN1 WT (human)) |
| --- | --- | --- | --- |
| His6-RPN1 WT (from UniProt Q13200) T1 | 0.37 nm | 0.19 nm |  |
| NUB1L-bound GST-FAT10 (NUB1L co-incubated with GST-FAT10) (from UniProt Q9Y5A7-1 1-615; O15205 1-165) (complex) |  |  | 4 fold |
